Laboratory results reported in publication PMC7614687, “Modulation of the substrate specificity of the kinase PDK1 by distinct conformations of the full-length protein*” (Science signaling, 2023).
No end group written: not given here. *: point of attachment. Biotin = O=C1N[C@H]2[C@H](CS[C@H]2CCCCC(=O)*)N1

Assays:
[1] = molecular target: T1, His-PDK1_(1-556) (UniProt O15530 1-556); assay: AlphaScreen or HTRF; His-PDK1_(1-556) and GST-PDK1_(360-556); nickel chelate-coated acceptor beads and GSH-coated donor beads; standard buffer 50 mM Tris-HCl pH 7.4, 100 mM NaCl, 2 mM DTT, 0.01% Tween-20, 0.1% BSA; 60 min at room temperature; settings: both partners purified
T1 construct: also called full-length PDK1; PDK1 FL; source: Sf9 insect cells (Bac-to-Bac baculovirus), purified (Ni-NTA, gel filtration); not shown: His, N-terminal, kept; myc, N-terminal, kept
T1 sequence (looked up): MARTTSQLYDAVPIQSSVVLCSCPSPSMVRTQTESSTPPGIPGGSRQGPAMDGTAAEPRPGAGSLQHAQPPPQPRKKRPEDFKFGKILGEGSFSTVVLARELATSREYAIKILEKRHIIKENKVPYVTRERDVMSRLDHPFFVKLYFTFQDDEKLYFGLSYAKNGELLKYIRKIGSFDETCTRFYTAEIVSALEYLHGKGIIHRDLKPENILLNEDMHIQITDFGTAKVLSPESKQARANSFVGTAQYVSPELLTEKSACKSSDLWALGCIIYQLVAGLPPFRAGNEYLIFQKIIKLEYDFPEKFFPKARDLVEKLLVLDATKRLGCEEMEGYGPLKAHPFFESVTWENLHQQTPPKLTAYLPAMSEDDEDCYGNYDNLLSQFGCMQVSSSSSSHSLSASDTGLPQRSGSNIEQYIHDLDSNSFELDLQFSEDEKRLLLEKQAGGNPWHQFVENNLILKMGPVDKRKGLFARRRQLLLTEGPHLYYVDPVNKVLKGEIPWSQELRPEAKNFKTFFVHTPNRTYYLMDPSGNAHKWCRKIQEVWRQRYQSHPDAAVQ

[2] = molecular target: the molecule itself; assay: STORM-based single-molecule fluorescence intensity; TMR-Star-labelled SNAP-PDK1 diluted and adsorbed on PDDA-coated slides; 50 mM Tris-HCl pH 7.4, 100 mM NaCl, 1 mM DTT; dimers told from monomers by spot intensity
[3] = molecular target: T2, GST-PDK1_(1-556) (UniProt O15530 1-556); assay: AlphaScreen or HTRF; GST-PDK1_(1-556) (150 nM) and biotin-GS-022; anti-GST coated acceptor beads and streptavidin-coated donor beads; standard buffer; with or without HYG8; settings: both partners purified
T2 construct: source: HEK293 cells, transient transfection of pEBG2T plasmid, purified, dialyzed to remove GSH
T2 sequence (looked up): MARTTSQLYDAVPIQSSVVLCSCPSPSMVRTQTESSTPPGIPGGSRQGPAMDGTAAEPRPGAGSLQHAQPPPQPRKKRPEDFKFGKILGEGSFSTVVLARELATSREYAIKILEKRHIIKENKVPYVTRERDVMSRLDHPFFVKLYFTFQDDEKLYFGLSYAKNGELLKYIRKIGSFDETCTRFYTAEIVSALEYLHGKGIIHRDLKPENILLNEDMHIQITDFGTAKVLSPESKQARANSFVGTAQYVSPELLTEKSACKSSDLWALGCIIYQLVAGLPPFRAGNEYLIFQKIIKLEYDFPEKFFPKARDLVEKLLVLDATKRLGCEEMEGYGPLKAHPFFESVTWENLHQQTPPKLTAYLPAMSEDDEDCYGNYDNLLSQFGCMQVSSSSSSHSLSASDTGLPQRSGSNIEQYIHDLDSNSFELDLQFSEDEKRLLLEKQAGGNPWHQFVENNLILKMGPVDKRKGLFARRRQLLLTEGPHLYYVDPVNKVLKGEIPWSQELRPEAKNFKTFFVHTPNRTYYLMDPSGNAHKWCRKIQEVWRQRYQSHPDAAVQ

B1: GST-PDK1_(360-556) (domain or fragment, UniProt O15530 360-556, looked up)
chain: AYLPAMSEDDEDCYGNYDNLLSQFGCMQVSSSSSSHSLSASDTGLPQRSGSNIEQYIHDLDSNSFELDLQFSEDEKRLLLEKQAGGNPWHQFVENNLILKMGPVDKRKGLFARRRQLLLTEGPHLYYVDPVNKVLKGEIPWSQELRPEAKNFKTFFVHTPNRTYYLMDPSGNAHKWCRKIQEVWRQRYQSHPDAAVQ
notes: Cloned into the BamHI-KpnI sites of pEBG2T; also called GST-PDK1-Linker-PH; GST-linker-PH domain; source: HEK293 cells, transient transfection of pEBG2T plasmid, purified, dialyzed to remove GSH
[1]
  binding result: binds

B2: SNAP-PDK1_(50-556) (enzyme, UniProt O15530 50-556, looked up)
chain: AMDGTAAEPRPGAGSLQHAQPPPQPRKKRPEDFKFGKILGEGSFSTVVLARELATSREYAIKILEKRHIIKENKVPYVTRERDVMSRLDHPFFVKLYFTFQDDEKLYFGLSYAKNGELLKYIRKIGSFDETCTRFYTAEIVSALEYLHGKGIIHRDLKPENILLNEDMHIQITDFGTAKVLSPESKQARANSFVGTAQYVSPELLTEKSACKSSDLWALGCIIYQLVAGLPPFRAGNEYLIFQKIIKLEYDFPEKFFPKARDLVEKLLVLDATKRLGCEEMEGYGPLKAHPFFESVTWENLHQQTPPKLTAYLPAMSEDDEDCYGNYDNLLSQFGCMQVSSSSSSHSLSASDTGLPQRSGSNIEQYIHDLDSNSFELDLQFSEDEKRLLLEKQAGGNPWHQFVENNLILKMGPVDKRKGLFARRRQLLLTEGPHLYYVDPVNKVLKGEIPWSQELRPEAKNFKTFFVHTPNRTYYLMDPSGNAHKWCRKIQEVWRQRYQSHPDAAVQ
modifications: SNAP-Cell TMR-Star label on the SNAP-tag
notes: also called TMR-SNAP-PDK1
[2]
  binding result: binds

B3: biotin-GS-022 (peptide)
peptide: Biotin-RRRQFSLRRKAK
notes: synthetic peptide substrate of PDK1; source: synthetic peptide (Pepscan)
[3]
  binding result: binds
